Data on 41 sequences can be found in the nanobody polyreactivity screen of Harvey et al. (2022).

This series can be described thus: yeast display, Sf9 membrane polyspecificity reagent, FACS + sequencing; frameworks hold sequencing errors. Summed up:
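Using colony PCR, genes from sorted yeast display clones were amplified, then sequenced on MiSeq at 2 × 250 and filtered by CDR length. The clones had been stained with 10% biotinylated, detergent-solubilized Sf9 membrane reagent for 1 hour at 4 °C and sorted by FACS into low and high (top ~1%) gates on anti-HA and streptavidin fluorescence. Polyreactivity labels come from the gate of origin.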
On to “QVQLVESGGGLVQAGGSLRLSCAASGFIFEWYDMGWYRQAPGKERELVASISWSGGSTYYADSVKGRFTISRDNAKNTVYLQMNSLKPEDTAVYYCNTPSYTYWHWYDYWGQGTQVTVSS”, for which the “polyreactivity (PSR sort gate)” value is “high polyreactivity”.
With “QVQLVESGGGLVQAGGSLRLSCAASGFIFFEYAMGWYRQAPGKERELVAAISWSDDTTYYADSVKGRFTISRDNAKNTVYLQMNSLNPEDTAVYYCNVRYWGFYDYDYWGQGSQVTVSS” the entry was “low polyreactivity”.
Next, “QVQLVESGGGLVQAGGSLRLSCAASGFIFFINDMGWYRQAPGTERELVAAISWSGGSTYYADSVKGRFTISRDNAKNTVYLQMNSLKPEDTAVYYCNTDVPTAQYDYWGQGTQVTVSS”: “low polyreactivity”; “QVQLVESGGGLVQAGGSLRLSCAASGFIFGANAMGWYRQAPGKERELVADINRGSTYYADSVKGRFTISRDNAKNTVYLQMNSLKPEDTAVYYCNRVYTQTFNPWGFEYWGQGTQVTVSS”: “high polyreactivity”; “QVQLVESGGGLVQAGGSLRLSCAASGFIFGDYAMGWYRQAPGKERELVADINWTGGSTYYADSVKGRFTISRDNAKNTVYLQMNSLKPEDTAVYYCAKDDYAFLITWVDYWGQGTQVTVSS”: “low polyreactivity”.
As to “QVQLVESGGGLVQAGGSLRLSCAASGFIFGGDPMGWYRQARGSDRELVAAISSSGGRTYYADSVKRRFTISRDNAKNNVYLQLNSLKPEDTAVYSCAVPRFGSAAKRYYYWGQGTQVTVTS”, the “polyreactivity (PSR sort gate)” value is reported as “high polyreactivity”.
Consider “QVQLVESGGGLVQAGGSLRLSCAASGFIFGGYAMGWYRQAPGKEREFVAAIRQRGGSTYYADSVKGRFTISRDNAKNTVYLQMNSLKPEDTAVYYCAATVRAVQASVRYGYWGQGTQVTVSS”, for which the “polyreactivity (PSR sort gate)” value is “high polyreactivity”.
Next, “QVQLVESGGGLVQAGGSLRLSCAASGFIFGGYAMGWYRQAPGKERELVAAISRSGGSTYYADSVKGRFTISRDNAKNTVDLQINSLKPEDTAVYYCYAVTRRQGFNYWGQGTQVTVSS”: “high polyreactivity”; “QVQLVESGGGLVQAGGSLRLSCAASGFIFGGYAMGWYRQAPGKERELVAAISYGGGSTYYADSVNGRFTISRYNAKNTVYLQMNSLKPEDTAVYYCAADIPGYRYTGYRRGYWGQGTQVTVSS”: “high polyreactivity”; “QVQLVESGGGLVQAGGSLRLSCAASGFIFGHNAMGWYRQAPGKERELVADITWSGGSTYYADSVKGRFTISRDNAKNTVYLQMNSLKPEDTAVYYCNARGRASATGRRGRPDPFGYWGQGTQVTVSS”: “high polyreactivity”.
Next, “QVQLVESGGGLVQAGGSLRLSCAASGFIFGHNAMGWYRQAPGKQRELVAAITYSGGSTYYADSVKGRFTISRDNAKNTVYLQMNSLKPEDTAVSYSAASNQWSSTYLTYGYYYWGQGTQVTVSS”: “low polyreactivity”; “QVQLVESGGGLVQAGGSLRLSCAASGFIFGKYAMGWYRQAPRKERELGAAISKSGGSTYYADSVKGRFTISRDNAKNTVYLQMNSLKPEDTAVYYCAARSLGHYGSWGQGTQVTVSS”: “high polyreactivity”; “QVQLVESGGGLVQAGGSLRLSCAASGFIFGLYAMGWYRQAPGKETELVATISWDGGSTYYADSVKGRFTISRDNAKNTVYLQMNSLKPEDTAVYYCAATYLYRSPYVPMDYWGQGTQVTVSS”: “low polyreactivity”.
With “QVQLVESGGGLVQAGGSLRLSCAASGFIFGLYDMGWDRQAPGKERELVATISDSGGDTYYSDSVKGRFTISRDNAKNTVYLQMNSMKPEDTAVYYCAAKYVYGRGIRAYDYWVQGTQVTVSS” the entry was “high polyreactivity”.
As for “QVQLVESGGGLVQAGGSLRLSCAASGFIFGNYAMGWYRQAPGKERELVATITRRGGRTYYADSVKGRFTISRDIAKNTVYLQMTSLKPEDTAVYYCNARPSRWAREGYWGQGTQVTVSS”, the “polyreactivity (PSR sort gate)” value is “high polyreactivity”.
With “QVQLVESGGGLVQAGGSLRLSCAASGFIFGPNAMGWYRQAPGKERELVAAITLSGGSTYYADSVKGRFTISRDNAKNTVYLQMNSLKPEDTAVYYCATTYYHNYLLYGYWGQGTQVTVSS” the entry was “low polyreactivity”; with “QVQLVESGGGLVQAGGSLRLSCAASGFIFGQYAMGWYRQAPGKERELVATINRSGGSTYYADSVKGRFTISRDNAKNTVYLQMNSLKPEDTAVYYCAKGPRISSSLRYSAYWKMNYWGQGTQVTVSS”, “high polyreactivity”; with “QVQLVESGGGLVQAGGSLRLSCAASGFIFGRYAMGWYRQAPGKERELVAAISSGDDTDYADSVKGRFTISRYNAKNTVYLLMNSLIPEDTAVYYCARSRFWSPVNYRRTIEFDSWGQGTQVTVSS”, “low polyreactivity”.
With “QVQLVESGGGLVQAGGSLRLSCAASGFIFGRYAMGWYRQAPGKERELVAAITSGGRTYYADSVKGRFTISRDNAKNTVYLQMNSLKPEDTAVYYCAKRVGRYWTAGYYWGQGTQVTVSS” the entry was “high polyreactivity”; with “QVQLVESGGGLVQAGGSLRLSCAASGFIFGRYTMGWYSQAPGKERELVAAISSRGGSTYYADSVKGRFTISRDNAKNTVYLQMNSLKPEDTAVYYCAADEIYGYDYWGQGTQVTVSS”, “high polyreactivity”; with “QVQLVESGGGLVQAGGSLRLSCAASGFIFGSIVMGWYRQAPGKERELVAAISKRGGTTYYADSVKGRFTISRDNAKNPVYLQMNSLKPEDTAVYYCAVEWCFRRNGRMDYWGQGTQVTVSS”, “high polyreactivity”.
With “QVQLVESGGGLVQAGGSLRLSCAASGFIFGSYAMGWYRQAPGKERELVAAITRSGGNTYYADSVKVRFTISRDNAKNTVYLQMNSLKPEDTAVYYCAAYSGYWYDYWGQGTQVTVSS” the entry was “high polyreactivity”.
Take “QVQLVESGGGLVQAGGSLRLSCAASGFIFGTYAMGWYIQAPGKERELVAAISTGATYYADSVKGRFTISRDNAKNTVYLQMNSLKPEDTAVYYCAAPRTYYLRYRWYLYEGDYWGQGTQVTVTS”: the “polyreactivity (PSR sort gate)” value is reported as “low polyreactivity”.
Next, “QVQLVESGGGLVQAGGSLRLSCAASGFIFGTYAMGWYRQAPGKERELVAAISRSGGSTSYADSVKGRFTISRDNAKNTVYLQMNSLKPEDTAVYYCNKRLLRFPYWGYDYWGQGTQVTVSS”: “high polyreactivity”; “QVQLVESGGGLVQAGGSLRLSCAASGFIFGTYAMGWYRQAPGKERELVAAISRVGNTSYADSVKGRFTISRDNAKNTVYLQMNSLKPEDTAVYYCAADAPSWYDRQYDYWGQGTQVTVSS”: “low polyreactivity”; “QVQLVESGGGLVQAGGSLRLSCAASGFIFGVNAMGWYRQAPGKERDLVAAITRNGGSTYYADSVKGRFTISRDNAKNTVYLQMNSLKPEDTAVYYCAKYVRRAPSTFDVDYWGQGTQVTVSS”: “high polyreactivity”.
With “QVQLVESGGGLVQAGGSLRLSCAASGFIFGWYGMGWDRQARGKERELVAAITWSGVRTYYADSVKGRFTISRDNAKNTVYLQMNSLKPEDTAVYYCARAGGYVGRGYKDQDGRGDYWGQGTQVTVSS” the entry was “high polyreactivity”; with “QVQLVESGGGLVQAGGSLRLSCAASGFIFGYNALGWYRQAPAKERELVAAITWIGGTTYYADSVKGRFTISRDNAKNTVYLQLNSLKPEDTAVYYCARQRSFGRSSYSHRYDYWGQGNQVTVSS”, “high polyreactivity”; with “QVQLVESGGGLVQAGGSLRLSCAASGFIFGYNAMDWYRQAPGKERELVAAITSGGSTNYADSVKGRFTISRDNAKNTVYLQMNSLKPEDTAVYYCNTVPGDFRSITDDDWGQGTQVTVSS”, “low polyreactivity”.
With “QVQLVESGGGLVQAGGSLRLSCAASGFIFGYNAMGWSRQAPGKERELVAAITWSGGSTYYADSVKGRFTISRDIAKNTVYLQMNSLKPEDTAVYYCNWPGEGDYWGQGTQVTVSS” the entry was “low polyreactivity”.
For the sequence “QVQLVESGGGLVQAGGSLRLSCAASGFIFGYNAMGWYRKAPGTERELVAAITWIGGTTYYADSVKGRFTISRDNAKNTVYLQMNSLKPEDTAVYYCARQRSYGRSSYSYGYDYWGQGTQVTVSS”, the “polyreactivity (PSR sort gate)” value was “high polyreactivity”.
Regarding “QVQLVESGGGLVQAGGSLRLSCAASGFIFGYNAMGWYRQAPGKERELVAAINWSGGRTYYADSVKGRFTISRDNPKNTVYLQMNSLKPEDTAVSYCNADGSRRYNYWGQGTQVTVSS”, the “polyreactivity (PSR sort gate)” value is reported as “low polyreactivity”.
Next, “QVQLVESGGGLVQAGGSLRLSCAASGFIFGYNAMGWYRQAPGKERELVAAIRAGDGSTYYADSVKGRFTISRDNAKNTVYLQMNSLKPEDTAVYYCAAAWRQSGYRYGYWGQGTQVTVAS”: “high polyreactivity”; “QVQLVESGGGLVQAGGSLRLSCAASGFIFGYNAMGWYRQAPGKERELVAAITASGGSTYYADSVKGRFTISRDNAKNTVYLQMNSLKPEDTAVYYCATVLRKNGERVNRLYYWGQGTQVTVSS”: “high polyreactivity”.
Next, “QVQLVESGGGLVQAGGSLRLSCAASGFIFGYNAMGWYRQAPGKERELVAAITRGGITYYADSVKGRFTISRDNAKYTVYLQMNSLKPEDTAVYYCASDWSVVYTDYDSWGHGTQVTVSS”: “low polyreactivity”; “QVQLVESGGGLVQAGGSLRLSCAASGFIFGYNAMGWYRQAPGKERELVAAITWSGGSTYYADSVKGRFTISRDNAKNTVYLQMNSLKPEDTAVDYCNWPGEGDYWGQGTQVTVSS”: “low polyreactivity”; “QVQLVESGGGLVQAGGSLRLSCAASGFIFGYNAMVWYRQAPGKERELVARINSGGNTNYADSVKGRFTISRDNAKNTVYLQMNSLKPDDTAVYYCARDASNRYDYWGQGTLVTVSS”: “low polyreactivity”.
In the case of “QVQLVESGGGLVQAGGSLRLSCAASGFIFGYYAMGWYRQAPGKERELVAAITSGGSTYYADSVKGRFTISRDNAKNTVYLQMNSLKPEDTAVYYCAAGWWYYLHMDYWGQGTQVTVSS”, the “polyreactivity (PSR sort gate)” value is listed as “high polyreactivity”.
With “QVQLVESGGGLVQAGGSLRLSCAASGFIFGYYAMGWYRQAPGKERELVAAMSRGGITYYADSVNGRFTISRDNAKNTVYLQMNSLKPEDTAVYYCAAPNRYSVPMYYWGQGTQVTVSS” the entry was “low polyreactivity”.
With “QVQLVESGGGLVQAGGSLRLSCAASGFIFGYYAMGWYRQAPGKERELVARITSSGGSTYYADSVKGRFTISRDNAKNTVYLQMNSLKPEDTAVYYCAKSPRAPRYIPYGYWGQGTQVTVSS”, the “polyreactivity (PSR sort gate)” value is “high polyreactivity”.
Next, “QVQLVESGGGLVQAGGSLRLSCAASGFIFGYYTMGWYRQAPGKERELVAAISSRGGSTYYAYSVKGRFTISRDNAKNTVYLQINSLKPEDTAVYYCAKRSTYTGSWWERGYCGQGTQVTVSS”: “high polyreactivity”.
